Data set [1] has as its system T-47D (Human mammary gland ductal carcinoma). Put plainly: MTT cytotoxicity assay. The following applies: 48h. The protocol: (§1) All the cancer cell lines were procured from National Centre for Cell Science, Pune (India). Cell lines were maintained under conditions as mentioned in Table 23. The cell lines were sub-cultured by trypsinization followed by splitting the cell suspension into fresh flasks and supplementing with fresh culture medium.
(§2) All the cell lines were grown in specified media at 37° C. with 95% Humidity and 5% CO2.
(§3) The cells were trypsinized, counted by Trypan blue method in Neuebauer's Chamber and plated in wells of flat bottom 96-well plate at the density corresponding to 10×10^3 cells/well/200 μL medium.
(§4) Following overnight incubation, the media in the plate was replenished with 180 μL/well and then the cells were treated with 20 μL of each test item at concentrations ranging from 2.5 μg/mL-80 μg/mL in triplicates, so that the total volume in each well is 200 μL.
(§5) The untreated cells served as negative control. The cells were incubated with the test items or positive control for a time period of 48h. Following incubation, the cell cytotoxicity was estimated using MTT assay. Absorbance was measured at 540 nm. The percentage cytotoxicity corresponding to each treatment was calculated using the formula:
(§6) % Cytotoxicity=(1−X/R)*100
(§7) Where X=absorbance of wells corresponding to treated cells R=absorbance of untreated cells (cells maintained in growth medium only)
(§8) IC50 value was calculated using Graph-Pad Prism version 4.01 software.
(In general: Formazan colour is commonly taken as a measure of viable cells.)

Data set [2] deals with PBMCs (Peripheral blood mononuclear cells). The data set can be described thus: MTT cytotoxicity assay. The following applies: 48h. Here is the method:
as §1, §2, §3, §4, §5, §6, §7, §8

Data set [3] concerns MDA-MB-453 (Human breast metastatic carcinoma). The data set can be described thus: MTT cytotoxicity assay. The following applies: 48h. Here is the method:
as §1, §2, §3, §4, §5, §6, §7, §8

In data set [4] the test system is MDA-MB-231 (Human breast adenocarcinoma). Put plainly: MTT cytotoxicity assay. The following applies: 48h. Here is the method:
as §1, §2, §3, §4, §5, §6, §7, §8

B1: SEQ ID NO. 2: recombinant lectin; variant of the S. rolfsii lectin amino acid sequence (reported as Rec-2 in WO 2010/095143) (protein)
chain: TYKITVRVYQTNPDAFFHPVEKTVWKYANGGTWTITDDQHVLTMGGSGTSGTLRFHADNGESFTATFGVHNYKRWCDIVTNLAADETGMVINQQYYSQKNREEARERQLSNYQVKNAKGRNFQIVYTEAEGNDLHANLIIG
modifications: In vitro synthesis
In the case of B1, the “% Cytotoxicity” value in the data set with AGS is 65.3%. Moreover, the IC50 in data set [1] is more than 80 µg/mL; in data set [2], more than 80 µg/mL; in data set [3], more than 80 µg/mL; in data set [4] it was 9.7 µg/mL.

As a reminder, the IC50 is the concentration that gives 50% inhibition. A low value points to greater potency in that assay.
